In article PMC10966353:

Molecular target: A/Singapore/INFIMH-16-0019/2016 hemagglutinin with a C-terminal sfGFP, GCN4 trimerization domain and Strep-tag (influenza A virus A/Singapore/INFIMH-16-0019/2016)
Assay: negative stain electron microscopy

**Q.** Which stoichiometry N does the source give for “A/Singapore/INFIMH-16-0019/2016 hemagglutinin with a C-terminal sfGFP, GCN4 trimerization domain and Strep-tag” here?
**A.** 3
